Read-outs that look alike come from different tables or passages of the source. *1 amine or outer side, *2 acyl side, *3 side chain or, on linkers, in order; H or OH if unused. Bridges are numbered along the chain shown (N, C = ends). Primed or numbered codes have the meaning given here. [ ]: non-standard residue; d: D form. Phe(4-(2-acetylaminoethoxy)) = 4-(2-acetamidoethoxy)-phenylalanine, CC(=O)NCCOc1ccc(C[C@H](N[*:1])C(=O)[*:2])cc1; Phe(4-OMe)(3) = O-methyl-L-tyrosine (4-methoxy-L-phenylalanine), COc1ccc(C[C@H](N[*:1])C(=O)[*:2])cc1; Phe(4-OMe) = 4-methoxy-L-phenylalanine (O-methyl-L-tyrosine), COc1ccc(C[C@H](N[*:1])C(=O)[*:2])cc1; 6‑amino‑1,4‑diazepane‑2,5‑dione = C-terminal 6-amino-1,4-diazepane-2,5-dione group; Phe(3,4-Cl2) = N[C@@H](Cc1ccc(Cl)c(Cl)c1)C(=O)O; 1Nal = N[C@@H](Cc1cccc2ccccc12)C(=O)O; 2Nal = N[C@@H](Cc1ccc2ccccc2c1)C(=O)O; AEF = NCCOc1ccc(C[C@H](N)C(=O)O)cc1; αMeL = CC(C)C[C@](C)(N)C(=O)O; Chg = N[C@H](C(=O)O)C1CCCCC1; Suc = O=C(CCC(=O)[*:2])[*:1]; hLeu = CC(C)CC[C@H](N)C(=O)O; αMeK = C[C@](N)(CCCCN)C(=O)O; Dab = NCC[C@H](N)C(=O)O; Abu = CC[C@H](N)C(=O)O; Dap = NC[C@H](N)C(=O)O; Aib = CC(C)(N)C(=O)O; βAla = NCCC(=O)O
T1: IL-23R on human cells (IL-23R-expressing DB cells; human NK cells) (human, UniProt Q5VWK5 24-629)
T1 sequence (looked up): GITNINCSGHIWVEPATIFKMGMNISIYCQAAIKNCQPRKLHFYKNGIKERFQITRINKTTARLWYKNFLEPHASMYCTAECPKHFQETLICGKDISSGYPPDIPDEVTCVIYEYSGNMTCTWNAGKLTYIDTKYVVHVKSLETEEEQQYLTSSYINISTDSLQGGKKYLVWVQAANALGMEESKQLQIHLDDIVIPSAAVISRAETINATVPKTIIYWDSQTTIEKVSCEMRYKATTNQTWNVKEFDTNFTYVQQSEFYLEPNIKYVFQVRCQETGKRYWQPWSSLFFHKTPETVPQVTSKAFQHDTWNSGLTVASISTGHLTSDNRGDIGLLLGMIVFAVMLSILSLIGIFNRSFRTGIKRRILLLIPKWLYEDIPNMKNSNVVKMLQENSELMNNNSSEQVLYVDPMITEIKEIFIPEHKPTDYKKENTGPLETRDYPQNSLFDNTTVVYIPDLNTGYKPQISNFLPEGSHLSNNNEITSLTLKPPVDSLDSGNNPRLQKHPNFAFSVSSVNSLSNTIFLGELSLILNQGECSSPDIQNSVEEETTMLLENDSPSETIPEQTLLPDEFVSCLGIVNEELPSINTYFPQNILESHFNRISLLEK

T2: IL23R_huFC (human, UniProt Q5VWK5 24-353)
T2 sequence (looked up): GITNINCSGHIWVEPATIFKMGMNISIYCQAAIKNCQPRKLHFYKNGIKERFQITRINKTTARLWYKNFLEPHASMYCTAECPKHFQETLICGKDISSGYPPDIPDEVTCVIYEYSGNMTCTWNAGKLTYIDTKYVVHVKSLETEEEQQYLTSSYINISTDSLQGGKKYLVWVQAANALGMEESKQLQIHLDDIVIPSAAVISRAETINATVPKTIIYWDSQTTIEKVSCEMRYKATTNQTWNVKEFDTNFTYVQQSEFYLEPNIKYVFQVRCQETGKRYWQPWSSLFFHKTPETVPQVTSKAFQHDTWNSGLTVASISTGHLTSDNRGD


Key:
Rat IL-23R_huFC [1] = molecular target: Rat IL-23R_huFC (rat); assay: rat ELISA vs IL-23
[2] = molecular target: T1, IL-23R on human cells …; assay: cell-based or functional assay
IL23R_huFC [3] = molecular target: T2, IL23R_huFC; assay: human ELISA vs IL-23
Rat IL-23R_huFC [4] = molecular target: Rat IL-23R_huFC (rat); assay: rat ELISA vs IL-23; remark: listed apart in the source
IL23R_huFC [5] = molecular target: T2, IL23R_huFC; assay: human ELISA vs IL-23; remark: listed apart in the source

| IC50 (Rat IL-23R_huFC [1]) | pStat3 HTRF IC50 [2] | IC50 (IL23R_huFC [3]) | IC50 (Rat IL-23R_huFC [4]) | IC50 (IL23R_huFC [5]) | Binder |
| --- | --- | --- | --- | --- | --- |
| < 10 nM | < 10 nM |  |  |  | Ac-[Abu]QTWQC[AEF][2Nal][Aib]E[Dab](Ac)G-NH2 (thioether 1-6) [Ac-Cyclo-[[Abu]-QTWQC]-[Phe[4-(2-aminoethoxy)]]-[2-Nal]-[Aib]-E-[Dab(Ac)]-G-NH2] |
|  |  | 25 to 100 nM |  |  | Ac-[Abu]QTWQCYW[hLeu]ENG-NH2 (thioether 1-6) [Ac-Cyclo-[[Abu]-QTWQC]-YW-[hLeu]-ENG-NH2] |
| < 10 nM |  |  |  |  | Suc-[Abu]QTWQC[AEF][2Nal][αMeK]K(Ac)NG-NH2 (thioether 1-6) [Succicinyl-Cyclo-[[Abu]-QTWQC]-[Phe[4-(2-aminoethoxy)]]-[2-Nal]-[α-MeLys]-[Lys(Ac)]-NG-NH2] |
|  |  | 25 to 100 nM |  |  | XQTWQCFWXENG (as bracketed in name; thioether cyclo) [Ac-Cyclo-[[Abu]-QTWQC]-[Phe[4-(2-aminoethoxy)]]-W-[Orn]-ENG-NH2] |
|  |  | 25 to 100 nM |  |  | Ac-[Abu]QTWQC[Phe(4-OMe)(3)][2Nal][αMeK]K(Ac)NGGE-NH2 (thioether 1-6) [Ac-Cyclo-[[Abu]-QTWQC]-[Phe(4-OMe)]-[2-Nal][α-MeLys]-[Lys(Ac)]-NGGE-NH2] |
|  |  | 25 to 100 nM |  |  | Ac-[Abu][Dap]TWQC[AEF][Phe(3,4-Cl2)][αMeK]K(Ac)NG-NH2 (thioether 1-6) [Ac-Cyclo-[[Abu]-DapTWQC]-[Phe[4-(2-aminoethoxy)]]-[Phe(3,4-Cl2)]-[α-MeLys]--[Lys(Ac)]-NG-NH2] |
|  | < 10 nM | 25 to 100 nM |  |  | Ac-[Abu]QTWQC[AEF]W[αMeK]K(Ac)-{6‑amino‑1,4‑diazepane‑2,5‑dione-NH2} (thioether 1-6) |
|  |  |  | 25 to 100 nM |  | Ac-[Abu]QTWQC[Phe(4-OMe)][1Nal][αMeK]K(Ac)NG-NH2 (thioether 1-6) [Ac-Cyclo-[[Abu]-QTWQC]-[Phe(4-OMe)]-[1-Nal][α-MeLys]-[Lys(Ac)]-NG-NH2] |
| < 10 nM | < 10 nM |  |  | < 10 nM | Ac-[Abu]QTWQC[AEF][2Nal][αMeL]K(Ac)NN-NH2 (thioether 1-6) [Ac-Cyclo-[[Abu]-QTWQC]-[Phe[4-(2-aminoethoxy)]]-[2-Nal]-[α-MeLeu]-[Lys(Ac)]-NN-NH2] |
| < 10 nM | < 10 nM |  |  |  | Ac-[Abu]QTWQC[Phe(4-(2-acetylaminoethoxy))][2Nal][αMeK](Ac)ENG-NH2 (thioether 1-6) [Ac-Cyclo-[[Abu]-QTWQC]-[Phe[4-(2-(acetyl-aminoethoxy)]]-[2-Nal]-[α-MeLys(Ac)]-ENG-NH2] |
| < 10 nM | < 10 nM |  |  | < 10 nM | Ac-[Abu]QTWQC[Phe(4-(2-acetylaminoethoxy))][2Nal][αMeK](Ac)ENQ-NH2 (thioether 1-6) [Ac-Cyclo-[[Abu]-QTWQC]-[Phe[4-(2-(acetyl-aminoethoxy)]]-[2-Nal]-[α-MeLys(Ac)]-ENQ-NH2] |
| < 10 nM | < 10 nM |  |  |  | Ac-[Abu]QTWQC[AEF][2Nal][αMeK]ENG-NH2 (thioether 1-6) [Ac-Cyclo-[[Abu]-QTWQC]-[Phe[4-(2-aminoethoxy)]]-[2-Nal]-[α-MeLys]-ENG-NH2] |
| < 10 nM | < 10 nM |  |  | < 10 nM | Ac-[Abu]QTWQC[Phe(4-(2-acetylaminoethoxy))][2Nal][αMeK](Ac)ENN-NH2 (thioether 1-6) [Ac-Cyclo-[[Abu]-QTWQC]-[Phe[4-(2-(acetyl-aminoethoxy)]]-[2-Nal]-[α-MeLys(Ac)]]-ENN-NH2] |
| < 10 nM | < 10 nM |  |  | < 10 nM | Ac-[Abu]QTWQC[AEF][2Nal][hLeu]K(Ac)N[βAla]-NH2 (thioether 1-6) [Ac-Cyclo-[[Abu]-QTWQC]-[Phe[4-(2-aminoethoxy)]]-[2-Nal]-[hLeu]-[Lys(Ac)]-N-[βAla]-NH2] |
| < 10 nM | < 10 nM |  |  | < 10 nM | Ac-[Abu]QTWQC[AEF][2Nal][αMeL]ENN-NH2 (thioether 1-6) [Ac-Cyclo-[[Abu]-QTWQC]-[Phe[4-(2-aminoethoxy)]]-[2-Nal]-[α-MeLeu]-ENN-NH2] |
|  |  | 25 to 100 nM |  |  | Ac-[Abu]QTWQC[Phe(4-OMe)(3)][2Nal][Chg]K(Ac)NG-NH2 (thioether 1-6) [Ac-Cyclo-[[Abu]-QTWQC]-[Phe(4-OMe)]-[Nal]-[Chg]-[Lys(Ac)]-NG-NH2] |

— patent US20190300590A1 (PROTAGONIST THERAPEUTICS, published 2019)
